Measurements reported in a protein production outcome set (Wang et al. 2014).

Assay: label from the status in PepcDB records
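Also: failed if final PepcDB status was selected cloned or expressed and not failed if soluble or beyond.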

Sequence	protein production
MDFFHHQDTARQRTGLLVMLFTLAVLAITGLVSVISIGIYFYFTGEPFTTQSIISYCLLSFVGVLLVVSISSFIRLSELNANGGRGVAESIGGKLISTDTSNAKHRQLLNVVEEMSIASGIPVPPVYVMAEEHGINAFAAGMSIDDAVIGVTQGALDAFSRDELQGVIAHEFSHILNGDMRLNTRLIGALFGITCIAHFGHLILDNSNSTRHVSRSSSDSNKGFAVIILIAIVCLVLGWLGTLFGNMIKAAISRQREFLADASAVQFTRNDQGIAGALKKIGSNVQGSTLNTKASDEMSHMMFGQSKLSGFSGLFATHPPLDERIRRIEPNWDGSYAQHSHAQNTAFDNEQVSGFAVGGGSPASQSASPSEQLSETGQQLISQLPPELVDIAREPYSARFIAFALIFDGSDIQREMIKSYVPLASQSTLLPWLDYDLPLHLRFPLLELALPALKSLSEAQKISLCKVLRELSETDNQYSLAEWCVINLLEKQLLASFGFIKQHKSLKQLEESVFWLLRELAWVSHSQADKAQRAYHCALAHLGFPEVKLEPANSNWHLSRAALELLLQLKPNDRRMFVKACRLAIESDGEITVAEGEIYRVIACFLEVPEPPLTISG	failed
MDFKIEKYLLKKAEELAFITIKHGGEFKLKSYEVPKGGLDVPIKNEVLVKGIKEKTAQDKLNSMSIADAMIYIIGIDSKFKNNAEYEKFLNALSKDIDLDLKSYMGYMSRKYFEIGEHTDSLIYIKAFITMYPDDLDAMYNYAIVCQEIAKQYQKDMDDKAMNAFLLEAMAKLEKVIDVDENFALGYYHLGYHYYNQGQYLKTKLTWEEALRLGLDADLVAEVQENLGKMDFKVQYEEGYTLVFQGKFKEGLEKLLPLEEEHMDWWNLLFMIALGYKGMGEIEQAKMYLEKILIIKPNQVDTIVELGLCEAYKNNLDKAIEYFEQAAKIKEDPEILCNLGMAYLNNGDIDDATYYIERAYELNPQDEITIVCLRELGINK	failed
MDFLLRTITMNERRALGFGVAAVLLWSTVATAFKITLEHFTPTQMLTIASAVSILALAGVAAYQKTLSQLIDTFLANPLYYILLGAINPLAYYLVLFKSYDLLPASQAQPLNYSWAITLTLMAAVFLGQKIRKQDWIACVLGYLGVIVIATKGDVLALEFDSPLGVGLALFSTLLWAGYWILNTKNKADPILGLLLGFLVALPVAIGLSIYEGAPWAQIPMSGWAAVSYVGLFEMGVTFVLWLSALRLTQNTARISNLIFASPFISLLLLANIIGEEIHPSTLIGLIMIVCGLLIQQFFGKKEELQTEQ	failed
MDFLPIFVIIASVMTAVSVYLIYLVKKGINGIGFLLVLYLSGSMLTMFISLSIALSNTALTTEILALTVNTAYMIVGLVSILLLGASRRKIESRKWYTVLLFSLLMTISEAVMGESFYSILTKSIGNPLIGTENYWFYAVMLAEMTFTLVYSFNSLTRQIRNYLLVTLPIMVVSPVILPTFSIWLSSLLMIVATIIIYDTLYRDRLKKTQETFTSLELMLIFTLMMAGIFTYYVTSSWYLYDISMILGMTWFIYRAIQGPSSIKGNYLRDSRWTFAFVLMTFVMEWFMGAVLDFASSYFSPGVEGFISSLPLGFVNPFSYFGAGALFDFLSIFGSVTGSVWFLVMMGLEMGTLAIFRIKEVRLRENRIRLALMVSAFAIYAVYIPSFSPLASKIPYIPYMWSMGLGTLGPVSTDYLLSGIVGTYVLSAVLSFLFGSRQICSVTCTAPTMYQGTFYNSLKVYNRTSSFARKTLSSKLRPWYKLIAIAVWSSLLAFAVISYFDQKGILNITIFGNDPTMFLYSFYFNFLWYVVFISIPFSGNYACVTQGWCSWGTFNQFFGGLGLFRLKVKDPELCVKCETKACSKACPVGNTDLPGNFIKKGEFKSSRCIGVGDCAEACPYDNIMFYDVRSWLKEKIKGDKM	failed
MDFLTEWIWFFLFVPLAALGGWIVGRRGGQRHGDTQVSRLSSTYFRGLNYLLNEQPDKAIELFLHIAELDKETFETQVALGHLFRRRGEVDRAIRLHQGLVQRGDLTDQQRVQALLALGEDYMKSGLLDRAETVFTELAQLDQRAPQALRHLIGIYQAERDWEKAIDNATRYEEVTGEPMGKLISQFECELADRYRGLGKTDDALQAIARAYQADGTSVRAGILEGRIEAERGHDEAAVRAFERAARHDPEYLPEIIPALMAAYRRVGDIAGARNFLSEMTEHYRGIAPVLALTQLMEAQDGVAPALAYLGRQLKDRPSVRGESALIDLTLAEGSDPVGTLQDLKHITDQLLVRNPSYRCTRCGFGAKTHHWQCPSCKEWGTVKPLLNYAVV	failed
MDFNYTIKALRTKKKLDAKPMTHTDFCYTIKALRSTKKLDAKPKPHTDFGYTIKVLRSRKKLELEPQLDLKSLSSVDLLEDTNSKTHTDFSYTIKASRSKKKLDTKSKTRTVFDYTIKAFRSKKKLDRKPKTHTDFGYTFKAMRSKKKLC	failed
MDFQAVTDELKTWTKARVMPGFSVALLTGKTVQTAVSGEAQWFPQPAPLQPHMLYDVASLTKVIGTTTVFLQAWDQGLVSPDMPLHRFLPDFPHTTTFRQALTHTSGLEGYIPHRNALPAPALKQALMTQLTVTEEVDRQVVYRDVNLLLVGWALEQVYHQPIQTLITRQVIQPLALPQATFQPDSQQCVPTTYSPAVGLRQGVVHDPKSAILGKHSGAAGLFASLADLVTFTEYFFGNRQSASWPAHAVDLTQDWTKHHLGRSLGWDLRRDGQGRLWLYHTGYTGTFWLIQPDDQLALVVLTNRVHPQPNPAFLARRDALIARFLSDFKTMPAV	failed
MDFRRAPELIGRLQEQAVVPREQGVQRLMRLALEYWLLPVLLLAAAVRFYDLTAAAIWGDEGSSLVLSQYSLSEIWFHAARDVHPPLYFMLLRGWIELFGDGIFSIRTFSALPGIVTVGLGMWLVALLATRRAAILAGVLLALLPTAVRYSQEVRMYALLGLLLLGATLALVYWLRQPSRPGYLVSYALLMTLAFYTHYFTAFCVLAHWLYLAVSGVRAEGGGRLVTRPAWWLANAAIVLLFLPWVPELLDLLRHMDELKANGDVGWEPVVTWSSLPAMVWQLLIQDEGDNLPGALFVGMPLLLLAVCSVLAWRDGAPARFGGLLASFTLLPLLLVFAVSFASPVFIERYLTAYALGLPMIMAVLIDRWLKTARLVALALLLGFVGLEAVGLKNNIDVDANDQISVMVDYVNRHYVAGDRIVISDMLWYLSYVYYNRTDAQPMLYTPPLPGGTSSRPNAYGFGTLIDHPDQVYLDQLSALSVGSGRYWLVGSDDQSEEFAPLPQGWHKVGQFAAGGTRARLFVLCGSAAGASCAGQ	failed
MDFSPPTTTADQSRRGFLKKSLAVSATVAAIGSLPRLSAAEPLTQRYPDPLVGVLDDSFLDIRIFNASVEKLATGMRWAEGPVWVGDGRYLLVSDIANNRIMRWDEVTGALSVYREHSNFSNGMCRDRQGRLLVCEGSSTTSEGRRVTRTEYNGRITVLADSFDGKPFNSPNDIVCKHDGSIWFTDPTFQANSDYEGHKVKQEQPFGVYRIDPSSGKVSRVIDDLAGPNGLCFSPDEKTLYVVEGRAKPNGLIWAIAVNEDGTLGERRKHVEGLEYAAIDGIKCDESGNLWCGWGGNGNPKADLEKLDGVRVFNPQGKAIGHISLPERCANLCFGGREGNRLFMASSHSLYSVFVNARGATLA	failed
MDFSSNVAAQLNAGTILPEGIVIVTLLLVLIVDLIGGRKVALALPYLAIAGLLVSVGLLVTSWSMADPIGFIGAFNGDNLSIIFRAIIALSTVVTILMSVRYVQQTGTSLAEFIAILLTATLGGMFLSAANELVMVFISLEMLSISSYLMTGYMKRDPRSNEAALKYLLIGASSSAIFLYGLSLLYGLSGGETQLVLIAEKLVNADTVGQSLGLAIALVFVIAGIAFKISAVPFHQWTPDVYEGSPTPVVAFLSVGSKAAGFAVAIRLLVTAFGGITDEWHVIFTALAVLSMVLGNVVALAQTSMKRMLAYSSIGQAGFVMIGLVAGSEDGYASMVFYMLIYLFMNLGAFSCIILFTLRTGSDQISDYAGLYHKDPLLTLGLSICLLSLGGIPPLAGFFGKIYIFWAGWQSGLYGLVLLGLVTSVVSIYYYIRVVKMMVVKEPQEMSEVIKNYPAIKWNLPGMRPLQVGIVATLVATSLAGILANPLFNLATDSVVSTKMLQTALQQTGETPAIAISHDLP	failed
MDFSVLLASLGISILELSEASAVAVIFQGIYKNSKPFLYAIAGILIVLVPVFTLGQYIVLLPINYVLLVAAVILAYFGYKLLRSARRSFKGSKKKHEEKEEGIMTVFVVSATEALEAGLVILALIPQSFSSALLGTGIAVIIVIALTIALRSQIMKIRVPHLKFVLSALLFGLATLFVAEALVDIDEVFLPLFFVIYLGVNYLVIKL	failed
MDFVFDIDGTLCFDGMSLSKEIQGILERAQIDYGHRVTFATARSYRDTIGILGDKLSLSKIIGLNGATLHENGHLVDSYYLQSDFFSTIISYCHRHQIPYFVDEVFNYATYQASKIPFIAYVDPQKRGELLEVSKIEKPIKMVLYFGDQLGRADQMLAELNRFGLSSHFFHEFEKCLYINPIAVDKGKATKKLFGNRFIAFGNDKNDISMFDAAHYSVQVGDFDELTPYANLRVSRESVHEGITTLFEKYKGIT	failed
MDFWPEFMATSWGREFVAGGFGGVAGIISGYPLDTLRIRQQQSSKSGSAFSILRRMLAIEGPSSLYRGMAAPLASVTFQNAMVFQIYAIFSRSFDSSVPLVEPPSYRGVALGGVATGAVQSLLLTPVELIKIRLQLQQTKSGPITLAKSILRRQGLQGLYRGLTITVLRDAPAHGLYFWTYEYVRERLHPGCRKTGQENLRTMLVAGGLAGVASWVACYPLDVVKTRLQQGHGAYEGIADCFRKSVKQEGYTVLWRGLGTAVARAFVVNGAIFAAYEVALRCLFNQSPSPDIVTGD	failed
MDGGDDGNLIIKKRFVSEAELDERRKRRQEEWEKVRKPEDPEECPEEVYDPRSLYERLQEQKDRKQQEYEEQFKFKNMVRGLDEDETNFLDEVSRQQELIEKQRREEELKELKEYRNNLKKVGISQENKKEVEKKLTVKPIETKNKFSQAKLLAGAVKHKSSESGNSVKRLKPDPEPDDKNQEPSSCKSLGNTSLSGPSIHCPSAAVCIGILPGLGAYSGSSDSESSSDSEGTINATGKIVSSIFRTNTFLEAP	not failed
MDGGFVRVCLLASGSKGNSLFVESDGTRVLIDAGLSAREIVRRLAVIEVEPADLDGLFISHEHVDHVRGVGVLARKYRLPVHVSYPTHHEVREGFGDAPVVEFESGYSFGFRDLLIDPFPITHDACDPVGFTIESKEGKVGIATDLGTATRLVADKLKRCRVLVLESNHDEEMLMGGPYPWHLKQRIKSRHGHLSNNDSAALLAEVLHPGLEGLFLAHLSEVNNDPAVAKEVAENLLVAQTTCSPRLIVGDQYRPSETLTL	failed
MDGLHVSILSLVIFIVLFAVFVYLGFYASRWRKGDLSKLPEWALAGRKLGPYLMWFLLTADLFTAYTFIAVPSLVLASGPIGFYAAFYSGVTAFIALLFMPRLWAVSRNKGYVTAADFVKDRFNSKTLAGLVAVTGVVAELPYIALQIVGMQAALSILLLGLGVSNISLVNDLSLLVSFIILAAFVFTSGLRGAALTAVYKDIIILATVITVAIYVPLAFGGFSAAFSNAATYSSQVNSALNGVNKPIFYQYLQSTVSNNLAYISLAIGSAFALYLYPHAVNGSVSADSKKSLKISLALQPFYSLILAIIALFGILVYANTNVLNFIIHAKSGAVAVPALIGYTMPDWFVGVALLGIFIGGLVPAAIMAIGAANLLTRNIIKELKPNMSPNTESSLAKWISTAFKFIALALVFTVPATYAIQLQLLGGVIILQTLPPLFLGLYTHKLNSHSLIAGWVAGMFSGIYLTMLANHFGPIKTTSFITPIGVMYIGAISVIINVAIGLIGTAIAYGVGWRPRTGVKTEELV	failed
MDGMGTLTRYLEEAMARARYELIADEEPYYGEIPDLPGVWATGKSLKECEANLQAALEDWLLFLLSRGETPPPLGEVRIELPHGEAA	not failed
MDGQQLNRLLLEWIGAWDPFGLGKDAYDVEAASVLQAVYETEDARTLAARIQSIYEFAFDEPIPFPHCLKLARRLLELKQAASCPLP	not failed
